This passage reports binding result and Kd results from article PMC3910374 (Cancer research, 2013).

Test in all cases: SPR
For orientation: Surface plasmon resonance follows binding to a sensor surface in real time, without labels.

For assay [1], the target named is GST-Bcl-2ΔTM S70E (UniProt P10415 1-219, S70E).
Assay [2] addresses Bcl-2ΔTM-His6 (unphosphorylated) (UniProt P10415 1-219).
Assay [3] has as its target GST-Bcl-2ΔTM (wt) (UniProt P10415 1-219).

Sequence of GST-Bcl-2ΔTM S70E (P10415 1-219 S70E): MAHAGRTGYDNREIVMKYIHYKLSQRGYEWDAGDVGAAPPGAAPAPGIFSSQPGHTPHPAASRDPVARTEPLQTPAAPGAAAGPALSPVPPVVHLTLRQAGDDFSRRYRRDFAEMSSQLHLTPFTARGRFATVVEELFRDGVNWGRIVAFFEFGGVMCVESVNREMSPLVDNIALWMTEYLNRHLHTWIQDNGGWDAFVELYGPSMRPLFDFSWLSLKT
Sequence of Bcl-2ΔTM-His6 (unphosphorylated) (P10415 1-219, stated change not applied): as the sequence (P10415 1-219 S70E) above, with E70S counted along it
Sequence of GST-Bcl-2ΔTM (wt) (P10415 1-219, stated change not applied): as the sequence (P10415 1-219 S70E) above, with E70S counted along it

B1: His6-tagged BakΔTM (domain or fragment, UniProt Q16611 1-186, looked up)
chain: MASGQGPGPPRQECGEPALPSASEEQVAQDTEEVFRSYVFYRHQQEQEAEGVAAPADPEMVTLPLQPSSTMGQVGRQLAIIGDDINRRYDSEFQTMLQHLQPTAENAYEYFTKIATSLFESGINWGRVVALLGFGYRLALHVYQHGLTGFLGQVTRFVVDFMLHHCIARWIAQRGGWVAALNLGNG
For the molecule B1, the binding result in assay [1] is “binds”. Besides, the Kd – broadly, the constant that tells how readily two partners part at equilibrium – in assay [2] is about 150 nM.

Take RPEIWIAQELRRIGDEFNAYYARRVF [26-mer Bim BH3 peptide]: in assay [3], the Kd came out at 7 nM.
